Legend:
[1] = biological target: T1, FiBAP (M38 β-aspartyl peptidase from Fervidobacterium islandicum AW-1) (Fervidobacterium islandicum, UniProt A0AAI8CML9); assay: enzyme activity inhibition (data not shown); assay type: biochemical; details: substrate analog inhibitor, conditions not given
T1 construct: gene iadA; full length (M1-E386), 6xHis tag (N-terminal per methods with pET-28a, C-terminal per results), E. coli BL21(DE3); 42 kDa monomer, 318 kDa octamer (tetramer of dimers); binuclear Zn
T1 sequence (A0AAI8CML9 1-387): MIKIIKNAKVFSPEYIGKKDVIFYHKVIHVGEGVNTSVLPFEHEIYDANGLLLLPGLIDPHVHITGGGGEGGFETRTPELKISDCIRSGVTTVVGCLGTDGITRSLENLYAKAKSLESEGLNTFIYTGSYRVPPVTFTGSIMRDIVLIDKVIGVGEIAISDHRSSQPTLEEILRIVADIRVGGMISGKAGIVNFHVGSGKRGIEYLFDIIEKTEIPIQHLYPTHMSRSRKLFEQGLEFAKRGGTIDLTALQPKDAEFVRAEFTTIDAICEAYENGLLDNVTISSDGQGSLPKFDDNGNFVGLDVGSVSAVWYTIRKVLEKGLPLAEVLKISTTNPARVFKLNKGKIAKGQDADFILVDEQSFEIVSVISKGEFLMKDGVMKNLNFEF

[2] = biological target: T1, FiBAP (M38 β-aspartyl peptidase from Fervidobacterium islandicum AW-1); assay: X-ray crystal structure, […] Å; assay type: binding; details: co-crystallised with Cbz-β-DL, but only the β-DL moiety has density; wild type; binuclear Zn active site; pH about 5
[3] = biological target: M38 β-aspartyl peptidase from Fervidobacterium islandicum AW-1 (FiBAP) (Fervidobacterium islandicum AW-1); assay: SEC; Superdex 200 10/300 GL, 25 mM Tris-HCl pH 7.5, 150 mM NaCl; calibrated with blue dextran, thyroglobulin, ferritin, aldolase, conalbumin, ovalbumin; apparent Mr 318,000 against 42,000 by SDS-PAGE; octamer
[4] = biological target: M38 β-aspartyl peptidase from Fervidobacterium islandicum AW-1 (FiBAP) (Fervidobacterium islandicum AW-1); assay: crystal structure; hanging drop vapor diffusion at 20°C; ligand-free (I422, one subunit in the asymmetric unit, 2.6 Å) and with Cbz-β-Asp-Leu (P22(1)2, four subunits, 2.7 Å); octamer (tetramer of dimers) from symmetry-related molecule analysis
[5] = substrate: CC(C)C[C@H](NC(=O)C[C@H](N)C(=O)O)C(=O)O; assay: ninhydrin assay of free amino acids, Michaelis-Menten fit; assay type: biochemical, Fervidobacterium islandicum; details: 50 mM HEPES pH 8.0, 1 mM CoCl2, 80°C, 10 min, 1–32 mM substrate
From the text: ninhydrin assay of free amino acids, Michaelis-Menten fit on FiBAP ([…] β-aspartyl peptidase from Fervidobacterium islandicum AW-1) | steady-state kinetics analysis of FiBAP with β-DL as substrate, yielding Km and Vmax values

Question: `CC(C)C[C@H](NC(=O)C[C@H](NC(=O)OCc1ccccc1)C(=O)O)C(=O)O` [N-carbobenzoxy-β-Asp-Leu] was tested. Which “enzyme activity inhibition (data not shown)” value [1] did it give?
Answer: our substrate analog (Cbz-β-DL) containing Cbz inhibited enzyme activity in our enzyme assays

Question: With `CC(C)C[C@H](NC(=O)C[C@H](N)C(=O)O)C(=O)O` [β-Asp-Leu] as the molecule, how does the “X-ray crystal structure, 2.7 Å” value [2] read?
Answer: included distinct electron density only for the β-DL moiety lacking carbamazepine (Cbz)

Question: Which results are given for “M38 β-aspartyl peptidase from Fervidobacterium islandicum AW-1 (FiBAP) (enzyme)”?
Answer: stoichiometry N [3]: 8; stoichiometry N [4]: 8

B1: FiBAP (M38 β-aspartyl peptidase from Fervidobacterium islandicum AW-1) (Fervidobacterium islandicum) (protein)
chain: MIKIIKNAKVFSPEYIGKKDVIFYHKVIHVGEGVNTSVLPFEHEIYDANGLLLLPGLIDPHVHITGGGGEGGFETRTPELKISDCIRSGVTTVVGCLGTDGITRSLENLYAKAKSLESEGLNTFIYTGSYRVPPVTFTGSIMRDIVLIDKVIGVGEIAISDHRSSQPTLEEILRIVADIRVGGMISGKAGIVNFHVGSGKRGIEYLFDIIEKTEIPIQHLYPTHMSRSRKLFEQGLEFAKRGGTIDLTALQPKDAEFVRAEFTTIDAICEAYENGLLDNVTISSDGQGSLPKFDDNGNFVGLDVGSVSAVWYTIRKVLEKGLPLAEVLKISTTNPARVFKLNKGKIAKGQDADFILVDEQSFEIVSVISKGEFLMKDGVMKNLNFEF
notes: full length (M1-E386), 6xHis tag (N-terminal per methods with pET-28a, C-terminal per results), E. coli BL21(DE3); 42 kDa monomer, 318 kDa octamer (tetramer of dimers); binuclear Zn
Question: Which Km [5] does the source give for B1 here?
Answer: 5.23 ± 1.59 mg/mL

Source: paper PMC7774594, “Functional Characterization of Primordial Protein Repair Enzyme M38 Metallo-Peptidase From Fervidobacterium islandicum AW-1” (Frontiers in Molecular Biosciences, 2020)
